In patent US8460669B2, “Compositions and methods for identifying response targets and treating flavivirus infection responses” (Academia Sinica, priority 2005, dated 2013):
“Also recorded” adds a separate entry of the source.

B1: Fc.DC-SIGN: DC-SIGN (CLEC4L) extracellular domain fused to human IgG1 Fc (protein)
chain: QVSKVPSSISQEQSRQDAIYQNLTQLKAAVGELSEKSKLQEIYQELTQLKAAVGELPEKSKLQEIYQELTRLKAAVGELPEKSKLQEIYQELTWLKAAVGELPEKSKMQEIYQELTRLKAAVGELPEKSKQQEIYQELTRLKAAVGELPEKSKQQEIYQELTRLKAAVGELPEKSKQQEIYQELTQLKAAVERLCHPCPWEWTFFQGNCYFMSNSQRNWHDSITACKEVGAQLVVIKSAEEQNFLQLQSSRSNRFTWMGLSDLNQEGTWQWVDGSPLLPSFKQYWNRGEPNNVGEEDCAEFSGNGWNDDKCNLAKFWICKKSAASCSRDEEQFLSPAPATPNPPPA
modifications: left off: a dimerising Fc or GST

Assays:
[1] = Enzyme linked immunoassay of receptor.Fc fusions on immobilized GLPS-F3; type: binding, Ganoderma lucidum; conditions: GLPS-F3 100 ng/well; receptor.Fc 1 μg/ml
Method: The interactions of polysaccharides with receptor.Fc fusion proteins was further investigated by performing an enzyme-linked immunoassay, which was based on immobilizing GLPS-F3 through both hydrophilic and hydrophobic forces onto microtiter plates (polysytrene). In this format, the number of different receptor.Fc fusions for profiling was increased in comparison to Example 7. To optimize the quantity of GLPS-F3 for immobilization, various amounts (3-1000 ng/well, diluted in 100 mM Tris buffer, pH9.5) of biotinylated-GLPS-F3 (Biotin-GLPS-F3) were coated onto MaxiSorp StarWell microtiter plates (50 μL/well; Nunc). The plates were incubated overnight at 4° C., and then the wells were washed twice with TBST, followed by blocking with 200 μL blocking buffer (2% BSA/TBST) for 1 hour at room temperature. Peroxidase-conjugated avidin (1:5000 dilution, Vector Laboratories) and TMB (tetramethylbenzidine) substrate was then used for detection of immobilized biotinylated GLPS-F3.
The interaction between GLPS-F3 and receptor.Fc was then tested. […] Wells were incubated with 100 μL TMB substrate for 15 min after TBST washing and read at 450 nm in a Fusion plate reader (Perkin Elmer). […]

Dengue virus [2] = experiment: ELISA of receptor.Fc interaction with Dengue virus; type: binding; conditions: for interaction of receptor.Fc with Dengue virus (ELISA): receptor.Fc 1 μg, DV 5×10^6
Method: One μg of each receptor.Fc fusion protein was coated onto microtiter plates overnight at 4° C. DV (5×10^6 particles) of strain 16681 (a DEN2 strain) in binding buffer (1% BSA, 2 mM CaCl2, 2 mM MgCl2, 50 mM Tris-HCl pH 7.5, 150 mM NaCl) was then added to the plates and the plates were incubated for 2 hours. After washing non-bound virus, a biotinylated anti-DEN2 envelope protein antibody (Wu et al., J Virol, 2002. 76(8): p. 3596-604) was applied to bind to the virus for 1 hour. Diluted horseradish peroxidase-conjugated streptavidin was then added to the plates, followed by a 1 hour incubation. TMB substrate was then added and the plates were read using an ELISA reader at OD450 nm.
The microtiter plate assay was repeated in the presence of EDTA (10 mM) to chelate Ca^++ cations.
The microtiter plate assay was also repeated for DVLR1/CLEC5A.Fc fusion protein with DV particles (5×10^6) that had been 1) preincubated with 500 U of the glycosidase PNGaseF (New England Biolabs, Inc.) overnight at 37° C.; or 2) treated with dithiothreitol (DTTI) (0.1M); or 3) incubated at 95° C. for 5 minutes; or 4) UV irradiated for 5 minutes. The results are shown in FIG. 8D (asterisks indicate where the binding affinity of DVLR1/CLEC5A.Fc fusion protein is altered by modification of the virus relative to non-treated virus; ** p<0.01, *** p<0.001, Student's t test). […]

Dengue virus [3] = experiment: Immunoprecipitation of Dengue virus with receptor.Fc; type: binding; conditions: receptor.Fc 5 μg; DV 5×10^6; listed as DC-SIGN.Fc
Method: The results are depicted in FIG. 8A (** indicates p<0.01, *** indicates p<0.001 (Student's t test)). […] Specifically, 5×10^6 Dengue virus particles were incubated with 5 μg of each protein, and then Protein A beads were added. The resulting immunocomplexes were washed, separated by SDS-PAGE, and transferred onto nitrocellulose membrane. The membrane was then probed with biotinylated anti-DEN2 envelope protein antibody and developed with horseradish peroxidase-conjugated streptavidin.
In FIG. 16b, complexes of DV (5×10^6 PFU) with receptor.Fc (5 μg) were immunoprecipitated and detected on westerns with mAb to DV envelope (E) protein. […] FIGS. 16d and 16e show sugar competition assays wherein both DC-SIGN (CLEC4L) and DVLR1/CLEC5A increase DV binding to human 293T cells (FIG. 16d), while addition of sugars inhibits biotinylated DV binding to DC-SIGN- (left panel) or DLVR1/CLEC5A- (right panel) transfected 293T cells in a dose-dependent manner as determined by flow cytometry (FIG. 16e). According to FIG. 16e, MFI represents mean fluorescence intensity. Units (U) for monosaccharide (mannose and fucose) and polysaccharide (mannan) are mM and mg/ml, respectively. […] Data are expressed as the mean±s.d. of three independent experiments. Two-tailed, Student's t-tests were performed. […]

Molecule | binding ability to GLPS-F3 [1] | interaction of receptor.Fc with Dengue virus (ELISA) (Dengue virus [2]) | binding to DV pretreated with heat or dithiothreitol (Dengue virus [2]; 95° C. 5 min or DTT 0.1 M) | Ca^++ dependence of binding to Dengue virus (Dengue virus [2]; EDTA 10 mM) | interaction of receptor.Fc with Dengue virus (ELISA) (Dengue virus [2]; listed as DC-SIGN.Fc) | immunoprecipitation of Dengue virus (E protein detected) (Dengue virus [3])
Fc.DC-SIGNR: DC-SIGNR (CLEC4M) receptor.Fc fusion protein | minimal binding ability | able to capture DV2 | – | – | – | –
B1 | – | binds | not | Ca^++ dependent; also recorded: Ca^++-dependent | able to capture DV2 | able to immunoprecipitate DV; also recorded: detected
